Laboratory results from patent US20220016127A1, “COMPOSITIONS AND METHODS FOR INDUCING APPENDAGE AND LIMB REGENERATION” (priority 2020, published 2022).

System: Aurelia ephyra
Assay: Arm regeneration induction in amputated Aurelia ephyrae
Format: in vivo, Aurelia aurita
Conditions: amputated ephyrae, factor added to artificial seawater upon amputation
Experimental: Amputation. Strobilated ephyrae were fed daily with rotifers (Brachionus plicatilis) until amputation time. 2-3 days old ephyrae were anesthetized in 400 μM menthol and amputated using a razor blade mounted on an x-acto knife handle. After amputation, ephyrae were let to recover in bubbler cones (FIG. 7). Regeneration was assessed at various times until 1-2 weeks after amputation, before onset of maturation to medusa.
Inducing regeneration. Experimental setup. 0.5-1 L sand settling cones were repurposed as jellyfish aquaria (Nalgene Imhoff; FIG. 7). Each cone was equipped with an airline from a Tetra Whisper air pump 100 to create a gentle vertical current (˜1 bubble/sec, see FIG. 30). The conical geometry eliminates stagnant spots, where the ephyrae could get stuck. In this “bubbler cone” setup, the ephyrae were continually in water current either in the upward air bubble-generated current or the downward self-generated current. 500 mL artificial seawater and 30 ephyrae were placed in each cone to avoid crowding and fouling. Artificial seawater was changed every week. Nutrients. […]
Amputation. […] Regeneration was assessed at various times for 1-2 weeks after amputation, before onset of maturation to medusa. […]

B1: Egf: protein tested in the screen (hEGF recombinant, Sigma E9644) (protein, UniProt P01133 23-1207, looked up)
Pro-epidermal growth factor: PQHWSCPEGTLAGNGNSTCVGPAPFLIFSHGNSIFRIDTEGTNYEQLVVDAGVSVIMDFHYNEKRIYWVDLERQLLQRVFLNGSRQERVCNIEKNVSGMAINWINEEVIWSNQQEGIITVTDMKGNNSHILLSALKYPANVAVDPVERFIFWSSEVAGSLYRADLDGVGVKALLETSEKITAVSLDVLDKRLFWIQYNREGSNSLICSCDYDGGSVHISKHPTQHNLFAMSLFGDRIFYSTWKMKTIWIANKHTGKDMVRINLHSSFVPLGELKVVHPLAQPKAEDDTWEPEQKLCKLRKGNCSSTVCGQDLQSHLCMCAEGYALSRDRKYCEDVNECAFWNHGCTLGCKNTPGSYYCTCPVGFVLLPDGKRCHQLVSCPRNVSECSHDCVLTSEGPLCFCPEGSVLERDGKTCSGCSSPDNGGCSQLCVPLSPVSWECDCFPGYDLQLDEKSCAASGPQPFLLFANSQDIRHMHFDGTDYGTLLSQQMGMVYALDHDPVENKIYFAHTALKWIERANMDGSQRERLIEEGVDVPEGLAVDWIGRRFYWTDRGKSLIGRSDLNGKRSKIITKENISQPRGIAVHPMAKRLFWTDTGINPRIESSSLQGLGRLVIASSDLIWPSGITIDFLTDKLYWCDAKQSVIEMANLDGSKRRRLTQNDVGHPFAVAVFEDYVWFSDWAMPSVMRVNKRTGKDRVRLQGSMLKPSSLVVVHPLAKPGADPCLYQNGGCEHICKKRLGTAWCSCREGFMKASDGKTCLALDGHQLLAGGEVDLKNQVTPLDILSKTRVSEDNITESQHMLVAEIMVSDQDDCAPVGCSMYARCISEGEDATCQCLKGFAGDGKLCSDIDECEMGVPVCPPASSKCINTEGGYVCRCSEGYQGDGIHCLDIDECQLGEHSCGENASCTNTEGGYTCMCAGRLSEPGLICPDSTPPPHLREDDHHYSVRNSDSECPLSHDGYCLHDGVCMYIEALDKYACNCVVGYIGERCQYRDLKWWELRHAGHGQQQKVIVVAVCVVVLVMLLLLSLWGAHYYRTQKLLSKNPKNPYEESSRDVRSRRPADTEDGMSSCPQPWFVVIKEHQDLKNGGQPVAGEDGQAADGSMQPTSWRQEPQLCGMGTEQGCWIPVSSDKGSCPQVMERSFHMPSYGTQTLEGGVEKPHSLLSANPLWQQRALDPPHQMELTQ
modifications: Pro-epidermal growth factor
effect on arm regeneration / regeneration frequency (in words): no effect
